Data from US20180280532A1.

Target: human Trop-2 (human) (UniProt P09758)
Assay: cell binding assay, cell line not named

Sequence of human Trop-2 (human) (P09758 27-323): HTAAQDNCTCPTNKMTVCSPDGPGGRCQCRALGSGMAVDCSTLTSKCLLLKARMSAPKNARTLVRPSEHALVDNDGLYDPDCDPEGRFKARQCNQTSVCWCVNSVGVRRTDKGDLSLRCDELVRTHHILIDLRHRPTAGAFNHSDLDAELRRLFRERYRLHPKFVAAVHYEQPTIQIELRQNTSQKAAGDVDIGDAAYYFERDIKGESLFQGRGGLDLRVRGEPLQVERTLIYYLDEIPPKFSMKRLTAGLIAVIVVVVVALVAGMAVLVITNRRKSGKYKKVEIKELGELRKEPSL

hRS7-CL2A-SN-38 (antibody) gave a Kd of 1.2 nM.
